Laboratory results taken from the supplement of paper PMC12042874.
± gives the uncertainty stated by the source.

Experiment: amyloid nucleation score (Sup35N fusion, yeast selection) (log enrichment); library NNK2; higher = more nucleation; inactive = no reads after selection
Outline: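 Yeast lacking psi expressed peptides of 20 random codons fused to Sup35N, received 100 μM copper sulfate for 24 hours, and were then grown for 7 days at 30°C on medium lacking adenine and uracil. Illumina sequencing of input and output plasmid inserts provided the reads. Nucleation scores are DiMSum log enrichments of output over input, centred on the mode of non-aggregating sequences. Any sequence with under 100 input reads was excluded.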

Row | Substance | amyloid nucleation score
1 | IVFLCSRKCNVNMYGL | 10.7 ± 0.071
2 | ITTHMCYVFMWREIRAKDVD | 0.484 ± 0.8
3 | HWERLIGNLM | -0.791 ± 0.36
4 | GIESSPFCFSLPGSATKRKQ | 0.485 ± 0.36
5 | LLLPSAGKGSL | 0.219 ± 1
6 | YNWHMSHFYDLGP | 4.99 ± 0.099
7 | KCRISAMICDKAIFRVKRAC | 1.13 ± 0.4
8 | TILKDSTPAVYNVRMRFKAW | inactive
9 | FCSSFEEYICLNYVIRSEWM | 3.82 ± 0.095
10 | MRHSRHFVQYGWFDCGQSGS | 1.02 ± 0.29
11 | SDKGYCSTFNMRQALWDYGQ | 0.081 ± 1.1
12 | YYVERCNGTMVRNFLGATLV | -0.968 ± 0.5
13 | ATMEGSAECVFTRDIKIFRH | inactive
14 | NFASFCPFFS | 0.053 ± 0.39
15 | GNSISFVYQSLICFNCDLSV | 7.453 ± 0.024
16 | YFDSEPCLHFPCLVEGFRGW | -0.54 ± 1.1
17 | MYGTTRLVLWAVIDWFEGVG | -0.718 ± 0.49
18 | SLGIQRARNAMSNTPFALGS | 0.596 ± 0.36
19 | KLVGMPFSSVACNSFKHRSE | 0.408 ± 0.16
20 | IYTLP | inactive
21 | LYGTE | 0.244 ± 0.2
22 | ESLWMRTLMNVHYSDFRVTV | -0.174 ± 0.22

Row | Substance | amyloid nucleation score
23 | NNRSELVPKSANRMGFTSLA | -0.278 ± 0.29
24 | IIALKMVVLIKCIKVY | inactive
25 | VGVVLFFFVLCYWVKT | -0.79 ± 0.41
26 | SNYHSGRVKGGDVGVYIS | 3.57 ± 0.051
27 | RFDSDNTFDPGRWYSCSQDA | -0.346 ± 0.53
28 | NSWWTVLFRFYKALSLPRAR | -0.839 ± 0.78
29 | ALAYAWYLVGLLFSKVWRYS | 0.095 ± 0.42
30 | LWEVLWVFFDLNNVRLTMCN | -0.93 ± 0.78
31 | RILIINLSPNEYMIGLH | 4.3 ± 0.1
32 | YSHGEVCCWSCVMWVKHFMR | 1.47 ± 0.33
33 | RAFCVGSTYSSSGGQSLMRV | inactive
34 | HIEVSACTRFLILNIHLRII | -1.46 ± 0.53
35 | YNQTVCDFLGKRLWGDVWRS | 0.26 ± 0.36
36 | ICWPMGICLNNSDSVLLGEC | inactive
37 | WLTEVY | -0.587 ± 0.79
38 | GMESSMVRNVEHVKERVYIE | 3.6 ± 0.1
39 | VSEANVTYINFFC | 4.36 ± 0.089
40 | RIQINWDEFGQDRELRVSGR | 0.75 ± 0.5
41 | YVSWCCGRFISYPVC | 0.321 ± 0.19
42 | WQRLKLSEKLVGSAVPLKAG | 4.44 ± 0.11
43 | RFSDM | -0.126 ± 0.31
44 | GLYYASYNN | -1.63 ± 0.5

Row | Substance | amyloid nucleation score
45 | QRCWRSGTFSGM | -0.107 ± 1
46 | WFSECCSMASIGHSDTMDGS | -0.567 ± 1.1
47 | ASFQLELS | 0.438 ± 0.38
48 | LPYYKHCNRLTNVTCLYKRR | 3.34 ± 0.15
49 | VGSSRFLRDGVTRGLSMSGS | -1.07 ± 0.41
50 | SVRNNLAVGDKLFNVTADCN | 0.168 ± 0.8
51 | CNSCSP | 0.811 ± 0.67
52 | HVLTAGNHVGSVMNWHANEM | inactive
53 | IWNWRQYLYVLGADRFSYMC | 4.19 ± 0.049
54 | SNFPWPMERPEFSDDSVFWA | -0.313 ± 0.76
55 | IVQLVIAVTGMFLYWNYAFL | -0.461 ± 0.43
56 | VVDVVIGYWGRVMSDGCVAG | 0.816 ± 0.24
57 | ERLGSLFNDGQANS | 0.21 ± 0.41
58 | IIRPVFILNLPYLFRCVG | 0.465 ± 0.28
59 | RITDYRCLTMNKGQSARNQG | inactive
60 | LFESMPGCDDSNELIFWGIA | -0.722 ± 0.28
61 | FSPVSPSSGKAHGIGLVLLV | 0.083 ± 0.41
62 | FSVLAMAWSS | -0.226 ± 1.1
63 | NSSWSAPSLCLCM | 9.527 ± 0.045
64 | PDDCGWVLMFENQFAAAGTP | 0.122 ± 0.28
65 | HCSWLYVLSYVSMSNICIGY | -0.876 ± 0.76
66 | GYEASHSRFASSHLTPWGKR | 1.74 ± 0.32

Row | Substance | amyloid nucleation score
67 | FILVYTRPTLESLGEWWIRC | -0.628 ± 0.63
68 | RPVSSFVSASGSRSGLQSLK | 0.085 ± 0.8
69 | GWVNRIYTRQLECSSLEYFF | 3.17 ± 0.11
70 | LDILIYLKILDISFGNESCM | 0.002 ± 0.17
71 | CFSSVIFAMIFVRNR | 1.73 ± 0.21
72 | CAVGDPYCSAMFMMNLWGEK | 9.547 ± 0.052
73 | FTMYPITG | 0.311 ± 0.29
74 | TRFILYLGCDE | -1.25 ± 0.54
75 | AVSHCMDDSFWGAIHKRLLY | 3.63 ± 0.15
76 | VATLRSRHFDEHSHVVFSSS | 0.236 ± 0.29
77 | SRSAWLRELDPPA | 0.839 ± 0.43
78 | KLPLFTSMCCTGHFPPITPP | 0.409 ± 0.8
79 | MVAFNTFSD | inactive
80 | TMSHEFV | 0.085 ± 0.6
81 | QNMNLVHEIGMNRSLVFTFW | -0.167 ± 0.29
82 | MIGKRGVFS | inactive
83 | RSMISRAIYWQSWSTREERT | 1.86 ± 0.093
84 | ESYCAC | 1.55 ± 0.28
85 | ALVAWVVSYYLALLCSPRQS | -0.1 ± 0.74
86 | WVTIALYCNKLIVTVRGGIG | -0.029 ± 1.1
